{"source": "paper PMC5735978", "about": "“PAK6 Phosphorylates 14-3-3γ to Regulate Steady State Phosphorylation of LRRK2” (Frontiers in Molecular Neuroscience, 2017)", "binders": {"B1": {"name": "6xHis-14-3-3 zeta (natural protein, human, UniProt P63104 1-245, looked up)", "chain": "MDKNELVQKAKLAEQAERYDDMAACMKSVTEQGAELSNEERNLLSVAYKNVVGARRSSWRVVSSIEQKTEGAEKKQQMAREYREKIETELRDICNDVLSLLEKFLIPNASQAESKVFYLKMKGDYYRYLAEVAAGDDKKGIVDQSQQAYQEAFEISKKEMQPTHPIRLGLALNFSVFYYEILNSPEKACSLAKTAFDEAIAELDTLSEESYKDSTLIMQLLRDNLTLWTSDTQGDEAEAGEGGEN", "notes": "14-3-3 protein zeta, cloned in pET28a(+) by PCR from a mammalian expression plasmid (Prof. Dario Alessi); also called His-14-3-3ζ; source: E. coli BL21(DE3), purified (IMAC, ProBond resin; PD10 desalting); not shown: 6xHis, N-terminal, kept"}, "B2": {"name": "6xHis-14-3-3γ wild-type (natural protein, human, UniProt P61981 1-247, looked up)", "chain": "MVDREQLVQKARLAEQAERYDDMAAAMKNVTELNEPLSNEERNLLSVAYKNVVGARRSSWRVISSIEQKTSADGNEKKIEMVRAYREKIEKELEAVCQDVLSLLDNYLIKNCSETQYESKVFYLKMKGDYYRYLAEVATGEKRATVVESSEKAYSEAHEISKEHMQPTHPIRLGLALNYSVFYYEIQNAPEQACHLAKTAFDDAIAELDTLNEDSYKDSTLIMQLLRDNLTLWTSDQQDDDGGEGNN", "notes": "14-3-3 protein gamma, cloned in pET28a(+) by PCR from a mammalian expression plasmid (Prof. Dario Alessi); runs around the size of the dimer on blue native gels; also called recombinant 14-3-3γ; 14-3-3 gamma; source: E. coli BL21(DE3), purified (IMAC, ProBond resin; PD10 desalting); not shown: 6xHis, N-terminal, kept"}, "B3": {"name": "His-14-3-3γ T145D (natural protein, human, UniProt P61981 1-247, looked up)", "chain": "B2 chain with T145D", "notes": "14-3-3 protein gamma, phosphomimetic mutant; also called S145D (as once printed); source: E. coli BL21(DE3), purified (IMAC); not shown: 6xHis, N-terminal, kept"}, "B4": {"name": "6xHis-14-3-3 theta (natural protein, human, UniProt P27348 1-245, looked up)", "chain": "MEKTELIQKAKLAEQAERYDDMATCMKAVTEQGAELSNEERNLLSVAYKNVVGGRRSAWRVISSIEQKTDTSDKKLQLIKDYREKVESELRSICTTVLELLDKYLIANATNPESKVFYLKMKGDYFRYLAEVACGDDRKQTIDNSQGAYQEAFDISKKEMQPTHPIRLGLALNFSVFYYEILNNPELACTLAKTAFDEAIAELDTLNEDSYKDSTLIMQLLRDNLTLWTSDSAGEECDAAEGAEN", "notes": "14-3-3 protein theta, cloned in pET28a(+) by PCR from a mammalian expression plasmid (Prof. Dario Alessi); also called His-14-3-3θ; source: E. coli BL21(DE3), purified (IMAC, ProBond resin; PD10 desalting); not shown: 6xHis, N-terminal, kept"}}, "key": {"3xFlag-PAK6 wild-type [1]": {"target": "T1, 3xFlag-PAK6 wild-type (UniProt Q9NQU5 1-681, autophosphorylated; phospho-Ser560 monitored by western blot)", "T1 construct": "construct as described in Civiero et al., 2015; source: HEK293T, transfected; in lysate (immunoprecipitation) and immunopurified on anti-Flag resin (pull-down, overlay)", "experiment": "far-Western, overlay or dot blot; immunopurified Flag-tagged PAK6 or LRRK2 separated by SDS-PAGE and blotted onto nitrocellulose; incubated with purified His-14-3-3s at 1 μg/ml in 5% BSA in TBS-T overnight at 4°C; anti-His detection", "conditions": "both partners purified"}, "3xFlag-PAK6 S531N": {"target": "T2, 3xFlag-PAK6 S531N (UniProt Q9NQU5 1-681, S531N, autophosphorylated; phospho-Ser560 monitored by western blot)", "T2 construct": "PAK6, constitutively active variant; construct as described in Civiero et al., 2015; also called active variant S531N; source: HEK293T, transfected; in lysate (immunoprecipitation) and immunopurified (overlay)", "T2 sequence (Q9NQU5 whole entry S531N)": "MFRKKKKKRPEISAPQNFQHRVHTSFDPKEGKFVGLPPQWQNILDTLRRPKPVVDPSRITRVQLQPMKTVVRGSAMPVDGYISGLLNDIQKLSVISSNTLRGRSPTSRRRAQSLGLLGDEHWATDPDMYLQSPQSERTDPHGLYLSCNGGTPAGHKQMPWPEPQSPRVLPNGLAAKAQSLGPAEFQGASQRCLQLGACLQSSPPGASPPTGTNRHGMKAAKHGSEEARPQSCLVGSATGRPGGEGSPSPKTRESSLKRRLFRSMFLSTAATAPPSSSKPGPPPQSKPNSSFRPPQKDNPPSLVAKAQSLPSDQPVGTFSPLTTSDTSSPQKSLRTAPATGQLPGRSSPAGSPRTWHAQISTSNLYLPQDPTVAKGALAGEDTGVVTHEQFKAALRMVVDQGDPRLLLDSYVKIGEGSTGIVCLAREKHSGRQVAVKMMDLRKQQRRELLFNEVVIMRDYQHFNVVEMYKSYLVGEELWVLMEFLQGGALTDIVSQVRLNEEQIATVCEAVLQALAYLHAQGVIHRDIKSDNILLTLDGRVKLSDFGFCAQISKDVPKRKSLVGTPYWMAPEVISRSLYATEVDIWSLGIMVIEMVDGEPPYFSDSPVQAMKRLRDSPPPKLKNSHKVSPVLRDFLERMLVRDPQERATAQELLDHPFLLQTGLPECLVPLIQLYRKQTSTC", "experiment": "far-Western, overlay or dot blot; immunopurified Flag-tagged PAK6 or LRRK2 separated by SDS-PAGE and blotted onto nitrocellulose; incubated with purified His-14-3-3s at 1 μg/ml in 5% BSA in TBS-T overnight at 4°C; anti-His detection", "conditions": "both partners purified"}, "3xFlag-PAK6 wild-type [2]": {"target": "T1, 3xFlag-PAK6 wild-type", "experiment": "pull-down; Flag-purified PAK6 bound to anti-Flag resin incubated for 2 h with purified His-14-3-3 isoforms (1 μM); bound 14-3-3s revealed with anti-His antibody", "conditions": "both partners purified"}, "[3]": {"target": "the molecule itself", "experiment": "native gel or EMSA; blue native gel (4-16%) of purified His-14-3-3γ wild-type, S59D and T145D; 5 μg of protein loaded; Coomassie staining"}}, "note": "Where a chain is given by its changes, count along the chain named. Numbers in names are those of the source."}
{"binder": "B1", "values": [{"measurement": "binding result", "setting": "3xFlag-PAK6 wild-type [1]", "result": "binds"}]}
{"binder": "B2", "values": [{"measurement": "fold affinity against PAK6 wild-type", "setting": "3xFlag-PAK6 S531N", "result": 2, "unit": "fold"}, {"measurement": "binding result", "setting": "3xFlag-PAK6 wild-type [2]", "result": "binds"}]}
{"binder": "B3", "values": [{"measurement": "binding result", "setting": "[3]", "result": "binds"}]}
{"binder": "B4", "values": [{"measurement": "binding result", "setting": "3xFlag-PAK6 wild-type [1]", "result": "binds"}]}
